Measurements: the supplement of paper PMC10567573
± gives the standard deviation.

Assay: protein stability index of a GFP-peptide fusion (GPS, HEK-293T) (PSI 1-6); higher = more stable
[1] = treatment: DMSO, c terminus: a fixed tail appended
[2] = treatment: MLN4924 1 uM, 8 h, c terminus: a fixed tail appended
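Also: 24-mer peptide tiles fused after GFP, lentivirally expressed, FACS-sorted into six equal bins by GFP/DsRed ratio, decoded by Illumina sequencing, PSI is the read-weighted mean bin number.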

Sequence | protein stability index [1] | protein stability index [2] | protein stability index (treatment: DMSO, c terminus: native) | protein stability index (treatment: MLN4924 1 uM, 8 h, c terminus: native)
HKYNTTSTSYSPLASLPLKADTKG [PLAGL1] | 4.23 ± 0.16 | 4.41 ± 0.2 | – | –
HLADLVSYSIQKVIGFAKMIPGFR [VDR] | 4.2 ± 0.43 | 4.18 ± 0.25 | – | –
HLHLETFKAVLDGLDVLLAQEVRP [PRAME] | 2.18 ± 0.43 | 1.98 ± 0.29 | – | –
HLVEETRIHVLPSLNPDGYEKAYE [CPXM2] | 4.46 ± 0.15 | 4.34 ± 0.046 | – | –
HPGSGTKVQFNLQFTKPNASLGDV [SASS6] | 3.17 ± 0.44 | 3.23 ± 0.23 | – | –
HQLYTSSSHHSHSYIGLPYADHNY [KMT2E] | 2.5 ± 0.042 | 2.53 ± 0.21 | – | –
HRRGLGVDSKPELQRVLEHRRRNQ [FAM107A] | 4.01 ± 0.4 | 4.11 ± 0.31 | – | –
HSHPPEIKDQGGAGEGLVRSANGF [MAP2] | 4.7 ± 0.14 | 4.76 ± 0.2 | – | –
HSRRHESYSRGYSYHDGYGEALGR [RBMY1A1] | 3.14 ± 0.3 | 3.24 ± 0.36 | – | –
HTLILMFIWFVCSLVYYGLTLSAG [SLC22A15] | 2.42 ± 0.79 | 2.16 ± 0.36 | – | –
HVHCFTCAACKTPIRNRAFYMEEG [PDLIM7] | 2.24 ± 0.11 | 2.47 ± 0.23 | – | –
HVNFSHLTTKDYMEMYNVIMTVKE [SLC6A17] | 2.41 ± 0.32 | 2.44 ± 0.52 | – | –
IAGGLAGMGGIQNEKETMQSLNDR [KRT18] | 4.83 ± 0.24 | 4.81 ± 0.33 | – | –
IANCKLFRLQLQQGLFRIRVHSP [GAN] | – | – | 3.45 ± 0.51 | 2.6 ± 0.38
IARVADGLPLAASMQEDEQSGRDL [SEC22B] | 5.24 ± 0.22 | 5.33 ± 0.15 | – | –
IASIGRHRYIAYMANQEAAIQAFL [IQUB] | 2.39 ± 0.73 | 2.17 ± 0.36 | – | –
ICCDKCSVWQHIDCMGIDRQHIPD [KMT2E] | 2.7 ± 0.28 | 2.87 ± 0.43 | – | –
IDEHHFVAVALRKPDGSRHQDVPS [AASDHPPT] | 4 ± 0.17 | 4.07 ± 0.19 | – | –
IDNANRILGPAYFVTYVFFVFFVL [PKD2L1] | 2.67 ± 0.71 | 2.67 ± 0.6 | – | –
IDQWSMLGDMQTAREGAGLVVASG [KLHL12] | 3.36 ± 0.15 | 3.52 ± 0.051 | – | –
IENLAKANPQYTVYSQASTMSIPV [PPP2R5C] | 2.8 ± 0.22 | 2.65 ± 0.25 | – | –
IFRDNQWVGFDDVESFKTKVSYLK [CHIT1] | 2.54 ± 0.34 | 2.81 ± 0.24 | – | –

Sequence | protein stability index [1] | protein stability index [2] | protein stability index (treatment: DMSO, c terminus: native) | protein stability index (treatment: MLN4924 1 uM, 8 h, c terminus: native)
IGKWFDFKLFFNGRPGIVAWTLIN [DHCR7] | 2.56 ± 0.42 | 2.46 ± 0.18 | – | –
IGSVEEQLAQLRCEMEQQSQEYQI [KRT16] | 4.82 ± 0.15 | 4.85 ± 0.18 | – | –
IHFIAVAVCLLGVGTMVGADILAG [SLC35F2] | 2.8 ± 0.18 | 3.31 ± 0.45 | – | –
IIMWDIGGRKGRTLLLQGHHDKVQ [WDFY1] | 2.08 ± 0.55 | 2.2 ± 0.12 | – | –
IIYMGSFMLMLLVLGIQVKCFHEI [CDS1] | 3.57 ± 0.85 | 3.27 ± 0.34 | – | –
IKHVLQTFGPIPEFSRATAEKVNQ [CRYL1] | 3.39 ± 0.44 | 3.43 ± 0.51 | – | –
IKWLKEAEEESSGGEEEDEDENIE [EIF5] | 5.41 ± 0.14 | 5.49 ± 0.25 | – | –
ILIIISVIVQIKQPRKKYVQRKSD [NETO1] | 2.86 ± 0.64 | 2.52 ± 0.36 | – | –
ILLKVKTEIEEELKSLDKEISEAF [BCL2L13] | 2.75 ± 0.36 | 3.19 ± 0.33 | – | –
ILNFNDLMSSAVPMTPEDPSFWDC [AASDHPPT] | 2.71 ± 0.31 | 2.92 ± 0.2 | – | –
ILSEEGRRQQAKLKELQAIAERLG [KCNAB2] | 3.57 ± 0.38 | 3.73 ± 0.3 | – | –
ILSGARVNAKDNMWLTPLHRAVAS [ANKRD44] | 2.34 ± 0.1 | 2.4 ± 0.27 | – | –
ILSGKFTILNVRDPTGASIALFTA [PTPN9] | 2.84 ± 0.73 | 3.19 ± 0.74 | – | –
ILSKVQKNHVGKPLLKMDLNSEQA [FAM98B] | 3.62 ± 0.31 | 3.46 ± 0.47 | – | –
ILVVTVQLILFGLSNQLAVTFREE [MCOLN1] | 3.02 ± 0.39 | 3.05 ± 0.23 | – | –
IMNFIDIVAIIPYFITLGTEIAEQ [KCNA1] | 3.2 ± 0.41 | 2.89 ± 0.15 | – | –
IMSRVNAYQQGVGYQMLGNVVTIG [PHTF1] | 2.21 ± 0.48 | 2.31 ± 0.34 | – | –
INSDTGVLYALRSFDYEQFHELQM [PCDHGA10] | 2.2 ± 0.2 | 2.35 ± 0.29 | – | –
IPLDLGCTQVTQDGDIPNIPAEEN [FAM189A2] | 5.48 ± 0.12 | 5.48 ± 0.18 | – | –
IQECVPEDLELKKKIFAQLDSIID [CRYL1] | 3.07 ± 0.2 | 3.33 ± 0.34 | – | –
IQLRRWQETRGELQCRSPPRLHGA [TBC1D10A] | 2.74 ± 0.23 | 2.85 ± 0.39 | – | –
IQPGPFRAVLKYLYTGELDENERD [RHOBTB2] | 3.37 ± 0.53 | 3.43 ± 0.25 | – | –

Sequence | protein stability index [1] | protein stability index [2] | protein stability index (treatment: DMSO, c terminus: native) | protein stability index (treatment: MLN4924 1 uM, 8 h, c terminus: native)
IRESRLFGAVVRWAEAECQRQQLP [BTBD1] | 2.5 ± 0.16 | 2.46 ± 0.13 | – | –
IRLGIEGYPTYKEKVKKRPGGRPE [BTBD10] | 3.41 ± 0.54 | 3.42 ± 0.41 | – | –
ISQMDSDQFIPIWTVANMEEIKKL [LARP4] | 3.25 ± 0.19 | 3.32 ± 0.16 | – | –
ITDNFCYFRHADPTWQNSIRHNLS [FOXJ1] | 2.32 ± 0.13 | 2.43 ± 0.17 | – | –
IVANTMPTHLSNGQMSTPETPQPS [HNF4A] | 4.43 ± 0.22 | 4.51 ± 0.15 | – | –
IVAVIDSAQLQELVCHVMMGNLVM [INTS3] | 3.25 ± 0.72 | 3.05 ± 0.55 | – | –
IVDFLTHHAQTSKTERINALELLG [FEM1C] | 2.09 ± 0.14 | 2.18 ± 0.23 | – | –
IVKKPKSMQCKVILLDGSEYTCDV [EPB41L3] | 1.93 ± 0.24 | 2.23 ± 0.69 | – | –
IVRFSGQSRGVPAVSESYSAPGAC [FBXO34] | 3.15 ± 0.34 | 3.36 ± 0.38 | – | –
IYHLDGQETPYLVKLPLPAERVTL [DVL3] | 2.28 ± 0.24 | 2.34 ± 0.26 | – | –
IYQYVQNSMAPHPARDYVVLRTWR [DLC1] | 1.93 ± 0.23 | 2.03 ± 0.37 | – | –
KAGIEQEGYWLPGDEISIKKKNTN [ZMYND11] | 4.5 ± 0.3 | 4.62 ± 0.35 | – | –
KALYETELADARRALDDTARERAK [LMNB1] | 5.191 ± 0.038 | 5.22 ± 0.26 | – | –
KAVANMQGEMDRKCKQVKEKCKEE [ZMYND11] | 5.14 ± 0.31 | 5.31 ± 0.3 | – | –
KAVMKTSVLLSWEIPENYNSAMPF [PTPRD] | 2.26 ± 0.67 | 2.26 ± 0.43 | – | –
KEDGEPSWREAKVSWFGSPTTSFL [PWWP2B] | 2.95 ± 0.082 | 3.17 ± 0.55 | – | –
KEEREDTPIQLQELLALETALGGQ [TCAP] | 5.17 ± 0.24 | 5.04 ± 0.14 | – | –
KESLCAKEEKCQGKGDDSETDKNN [KCNA4] | 5.62 ± 0.16 | 5.42 ± 0.1 | – | –
KESNANPIFMRKDTKMSFQWRIRN [DPCD] | 2.83 ± 0.15 | 3.01 ± 0.24 | – | –
KFSNIVDKFVIVDCRYPYEYEGGH [CDC25B] | 2.47 ± 0.16 | 2.25 ± 0.62 | – | –
KGDSTIRELKAKLSGVEEELQRTK [SASS6] | 4.86 ± 0.32 | 4.58 ± 0.21 | – | –
